From publication PMC2700736
Read-outs that look alike come from different tables or passages of the source.

Assays:
Experiment in all cases: filter binding
I-SceI wild-type [1] = molecular target: T1, I-SceI wild-type (UniProt P03882 1-235)
T1 sequence: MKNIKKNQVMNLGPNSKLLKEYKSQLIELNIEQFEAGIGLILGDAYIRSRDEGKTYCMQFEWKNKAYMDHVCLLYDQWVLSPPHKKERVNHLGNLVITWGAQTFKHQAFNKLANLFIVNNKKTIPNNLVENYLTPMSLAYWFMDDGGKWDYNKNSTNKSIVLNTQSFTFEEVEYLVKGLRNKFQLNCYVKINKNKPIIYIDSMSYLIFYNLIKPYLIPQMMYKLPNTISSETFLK

I-SceI wild-type [2] = molecular target: T1, I-SceI wild-type; remark: listed apart in the source
I-SceI K122I [3] = molecular target: T2, I-SceI K122I (UniProt P03882 1-235, K122I)
T2 sequence: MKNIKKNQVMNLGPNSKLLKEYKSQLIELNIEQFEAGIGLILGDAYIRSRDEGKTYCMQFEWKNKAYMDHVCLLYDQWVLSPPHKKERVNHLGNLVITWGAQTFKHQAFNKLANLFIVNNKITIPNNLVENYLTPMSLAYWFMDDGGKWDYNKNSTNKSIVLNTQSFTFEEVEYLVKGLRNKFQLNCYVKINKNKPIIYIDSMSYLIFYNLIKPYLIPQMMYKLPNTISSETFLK

I-SceI K223I [4] = molecular target: T3, I-SceI K223I (UniProt P03882 1-235, K223I)
T3 sequence: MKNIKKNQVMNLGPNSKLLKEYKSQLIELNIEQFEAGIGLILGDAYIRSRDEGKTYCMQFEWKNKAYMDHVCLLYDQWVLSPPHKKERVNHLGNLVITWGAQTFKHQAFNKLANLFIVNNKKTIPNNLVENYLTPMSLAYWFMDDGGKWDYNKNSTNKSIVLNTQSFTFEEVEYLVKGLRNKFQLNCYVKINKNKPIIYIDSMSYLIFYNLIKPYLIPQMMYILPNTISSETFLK

I-SceI K122I [5] = molecular target: T2, I-SceI K122I; remark: listed apart in the source
I-SceI K223I [6] = molecular target: T3, I-SceI K223I; remark: listed apart in the source

B1: Nicked top DNA strand substrate (structured_DNA)
DNA 1: GGTGAAACACTCGAACGCTAGGGATAA
DNA 2: CAGGGTAATATAGCCAATCCAATGATTGGCTATATTACCCTGTTATCCCTAGCGTTCGAGTGTTTCA
modifications: nick at top-strand cleavage site; 5' phosphate at nick (67-mer)
I-SceI wild-type [1]
  Kd: 19.4 ± 0.7 nM
I-SceI wild-type [2]
  Kd: 4.2 ± 1.1 nM

B2: Nicked bottom DNA strand substrate (structured_DNA)
DNA 1: GGTGAAACACTCGAACGCTAGGGATAACAGGGTAATATAGCCAATCCAATGATTGGCTATATTACCCTGTTAT
DNA 2: CCCTAGCGTTCGAGTGTTTCA
modifications: nick at bottom-strand cleavage site; 5' phosphate at nick (21-mer)
I-SceI wild-type [1]
  Kd: 13.2 ± 2.1 nM
I-SceI wild-type [2]
  Kd: 3.2 ± 0.2 nM

B3: Duplex linear product (upstream cleavage product) (dsDNA)
DNA 1: GGTGAAACACTCGAACGCTAGGGATAA
DNA 2: CCCTAGCGTTCGAGTGTTTCA
I-SceI wild-type [2]
  Kd: 175 ± 48 nM

B4: 94-mer intact hairpin substrate (structured_DNA)
DNA: GGTGAAACACTCGAACGCTAGGGATAACAGGGTAATATAGCCAATCCAATGATTGGCTATATTACCCTGTTATCCCTAGCGTTCGAGTGTTTCA
I-SceI K122I [3]
  Kd: 17.3 ± 0.4 nM
I-SceI K223I [4]
  Kd: 15.4 ± 0.3 nM
I-SceI wild-type [1]
  Kd: 14.5 ± 5.7 nM
I-SceI K122I [5]
  Kd: 7.3 ± 0.4 nM
I-SceI K223I [6]
  Kd: 7.4 ± 1.3 nM
I-SceI wild-type [2]
  Kd: 2.3 ± 0.4 nM

## CAGGGTAATATAGCCAATCCAATGATTGGCTATATTACCCTGTTAT (structured_DNA) [Hairpin product 46-mer (downstream cleavage product)]
I-SceI wild-type [2]
  Kd: 3.3 ± 0.6 nM
